# Numbering of substitutions follows the chain as printed. Names may count otherwise.
# B1: PyapApase (Pyrococcus yayanosii CH1) (protein)
# chain: MLALIIHHWDTDGITTAALLVRALELGDFKNMTPPIGEFRFDGKIWAAIERADKLYVLDLNLPQEVEKVPVETLFIDHHIQPRIKNPRVRQVNPALEGKHYPSASLVVSEHFGIFNAWSALGAVGDIGEKAFELSRVEELLKGEGLSREDALKLVELIDSNYIVMDRMAVEEALHVLLNYELRELLEYEPWIRRVEAIKEAVEEVMSSVEERNGFAIVDFESPFNIISKVARKLVWEKGYRGAVVVNRNFHGKAQVYFRVSPKEAERISVLTIIGKLRGLGVNAGGKREVIGCICERGKLDEVLSVIDAYLG
# B2: PyapApase (Pyrococcus yayanosii CH1; G285D) (protein)
# chain: B1 chain with G285D
# B3: PyapApase (Pyrococcus yayanosii CH1; R259A) (protein)
# chain: B1 chain with R259A
# B4: PyapApase (Pyrococcus yayanosii CH1; K287A) (protein)
# chain: B1 chain with K287A
# B5: PyapApase (Pyrococcus yayanosii CH1; D12A) (protein)
# chain: B1 chain with D12A
# Substrate: Nc1ncnc2c1ncn2[C@@H]1O[C@H](COP(=O)(O)O)[C@@H](OP(=O)(O)O)[C@H]1O
# Assay: HPLC of AMP product, initial rates, double reciprocal plot
# Format: biochemical, Pyrococcus yayanosii
# Details: 20 mM Tris-HCl pH 8.0, 50 mM NaCl, 1.0 mM MnCl2, 1.0 mM DTT, 100 µg/mL BSA, 70 °C
# Description: HPLC of AMP product, initial rates, double reciprocal plot on PyapApase
Protein,Km [µM],kcat [s⁻¹],kcat/Km [M⁻¹ s⁻¹]
B1,272 ± 12.6,,
B2,4500 ± 607.7,,
B3,6000 ± 753.4,,
B4,720 ± 33.1,17.10 ± 2.1,23800
B5,790 ± 47.7,1.7 ± 0.3,2160

# Source: paper PMC8268124, “Structure and Function of Piezophilic Hyperthermophilic Pyrococcus yayanosii pApase” (International Journal of Molecular Sciences, 2021)
